From the supplement of paper PMC9170038

Test system: MS2 coat protein
Test: apparent KD of MS2 coat protein; designed switch direction (-1 OFF switch, 1 ON switch): -1; higher = weaker reporter binding
Procedure, shortened: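 Each step of the titration lasted 0.8–1.5 h at the lowest concentration and 10–20 min at the highest. The protein, SNAP-549-labelled MS2 coat protein, went from 0.7 or 1.5 nM doubling to 3 µM over RNA switches transcribed on Illumina chips by stalled E. coli RNA polymerase. Normalised cluster fluorescence was curve-fitted, and the per-design median over clusters is given as apparent KD.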

[1] = input ligand: microRNA oligo, concentration not stated
[2] = Eterna round: R95, input ligand: FMN 200 uM
[3] = Eterna round: R95, input ligand: microRNA oligo, concentration not stated
[4] = Eterna round: R95, input ligand: none

Row | Sequence | apparent KD of MS2 coat protein (input ligand: FMN 200 uM) | apparent KD of MS2 coat protein [1] | apparent KD of MS2 coat protein (input ligand: none) | apparent KD of MS2 coat protein [2] | apparent KD of MS2 coat protein [3] | apparent KD of MS2 coat protein [4]
1 | AGAUAUUCGGUAGGAUAUCAGAAAGGAAGUGUAUGAGAAGGACCGAGCCGGAAACCGGUACAUGAGGAUCACCCAUGUGGUCCA [PowerStrip EXNG 1.23] (Eterna round: R96, puzzle: Exclusion NG 1) | 20.4 nM | 14 nM | 16.4 nM | – | – | –
2 | AUAGUGUUAGGAUAUGCUUAUGCUGGGUAGUCCAGUAUGGAGUAGAAGGGACAUGAGGAUCACCCAUGUGCUCA [EX4 #40] (Eterna round: R97, puzzle: Exclusion 4) | 18.6 nM | – | 20.5 nM | – | – | –
3 | AUACACUGAGGAUAUACAUGAGGAUCACCCAUGUGGAAAGCCUCUGGCGGAACUUCGUGUAGAAGGCAGCCACG [Esatdi] (puzzle: Exclusion 3) | – | – | – | 18 nM | 13.9 nM | 13.4 nM
4 | GCUGGAAGAGGAUAUACAUAACGUGCGUCAGCACGAGGCCUACAUGAGGAUCACCCAUGUAGAAGGCUUCCAGC [EX2 #77] (Eterna round: R97, puzzle: Exclusion 2) | 27.9 nM | – | 15.5 nM | – | – | –
5 | AGAAACAGAGGAUAUACUUGAGGAUCACCCAAGUGUCACGGAAACACUGUGCUCCUUUGUAGAAGGCUGGAAUA [Dibeon] (Eterna round: R97, puzzle: Exclusion 3) | 382 nM | – | 63 nM | – | – | –
6 | CGUUGGCGAGGAUAUACAUGAGGAUCACCCAUGUGAGAGAAAAAAGUGAGGAAGAAAAGUAGAAGGCGCUGACG [salish99_ex3_r3_050] (puzzle: Exclusion 3) | – | – | – | 350 nM | 101 nM | 34.9 nM
7 | UCCUUACUGGUCAGGAUAUACAUUCGCUACUCCUUGUAGAAGGGACAUGAGGAUCACCCAUGUACGUUACAUCC [alecazam54b] (Eterna round: R97, puzzle: Brourd's mod of Exclusion 4) | 22.9 nM | – | 21.6 nM | – | – | –
8 | UUGUGGGUACGAAGGUGUAGUUUGAGCGUACGUUCUGUAACAUGAGGAUCACCCAUGUCGCUUUUUGCUCGUCUUAU [JR_SV3TOV2_Sub036] (puzzle: Sensor v3, turn-off variant 2) | – | – | – | 24.7 nM | 68.2 nM | 24.8 nM
9 | CAUUAUUAUCGAGGAUAUCCUAUUGAAAUUCUGGGAGAAGGCGGACUCAACAUGAGGAUCACCCAUGUGGGACGGAUGCUGGGA [salish99_exng1_r04_604] (Eterna round: R96, puzzle: Exclusion NG 1) | 18 nM | 20.9 nM | 21 nM | – | – | –
10 | CUCAUGUAAGGAUAUUGGCACAUGGAACCUGCUGGUUCUGAUAAGAAGGUACAUGAGGAUCACCCAUGUCCUCG [Eternabot (L2) Solution 89] (Eterna round: R97, puzzle: Exclusion 4) | 48.7 nM | – | 47.5 nM | – | – | –
11 | AAACGGCGGAUCGUGGCUUUUUGCUCGUCUUGUGCUACAACAUGAGGAUCACCCAUGUAGAGGUGAUCCGUUGUAAA [Grok-var2-18 mod JAL] (puzzle: Sensor v3, turn-off variant 2) | – | – | – | 28 nM | 17.1 nM | 38.3 nM
12 | AAAUAGCUUGAGGAUAUUGGAUUGGAUUUAGUGCGAGAAGGCAAGACAUGAGGAUCACCCAUGUUGUGUUGGGA [EX6 #12] (Eterna round: R97, puzzle: Exclusion 6) | 72.7 nM | – | 55.1 nM | – | – | –
13 | CCUCUGUGAGGAUAUCGCGGCGGGCUAACUCGCAAACAAAACGAGAAGGCACAUGAGGAUCACCCAUGUAGGUG [Cetiis] (Eterna round: R97, puzzle: Exclusion 4) | 39.1 nM | – | 262 nM | – | – | –
14 | AUAACAAGCUUUUUGUUCGUAGAACAUGAUGCUCGAGUCACAUGAGGAUCACCCAUGUCAUCCAGAUUGAUAGUUGA [JR_SV3TOV2_Sub060] (puzzle: Sensor v3, turn-off variant 2) | – | – | – | 39.5 nM | 51.2 nM | 40.3 nM
15 | GAUUACAACGAAGACAAGCACAUGAGGAUCACCCAUGUGUAAAAUCGAGUGGGCCCACUCGUACCUCAACACCGUCU [JR_Sensorv2_tov_Sub304] (Eterna round: R96, puzzle: Sensor v2, turn-off variant) | 18.9 nM | 15.8 nM | 19.8 nM | – | – | –
16 | CCGGAUAUGCAGGAUAUCGUAUCGGAAACGAUACGAGAAGGGUAUACAUGAGGAUCACCCAUGUGCCUUACCGG [Fiskers Ex 6 - 19] (puzzle: Exclusion 6) | – | – | – | – | 16 nM | –
17 | AUAAUGUAAGGAUAUCAGUCGACUAGCUGCGGCUAGUCGACUGAGAAGGUACAUGAGGAUCACCCAUGUGGUUC [E4/11-A3] (Eterna round: R97, puzzle: Exclusion 4) | 185 nM | – | 304 nM | – | – | –

Row | Sequence | apparent KD of MS2 coat protein (input ligand: FMN 200 uM) | apparent KD of MS2 coat protein [1] | apparent KD of MS2 coat protein (input ligand: none) | apparent KD of MS2 coat protein [2] | apparent KD of MS2 coat protein [3] | apparent KD of MS2 coat protein [4]
18 | GAGAGGUCAGGAUAUACGGAGAGAGGGAGUAGGUGAGGGUAACAUGAGGAUCACCCAUGUAGAAGGGACUAAGG [JR_Exclu2_Sub076] (puzzle: Exclusion 2) | – | – | – | 26.4 nM | 27.4 nM | 39.9 nM
19 | GUUCCACAUGAGGAUCACCCAUGUGAGGAUAUGGUUUCGCUGGCCGUAGCCAGUGGAACCAGAAGGCGCGUGAU [Mat - Exclusion 1 - JL Mod - D19] (Eterna round: R97, puzzle: Exclusion 1) | 80.8 nM | – | 67.3 nM | – | – | –
20 | ACACACAGAGGAUAUCUUCCGCAUGACAUGAGGAUCACCCAUGUGUGCAUGCCCAAAGGUAGAGAAGGCUGUGUGU [eternacac ex5r4 #4] (Eterna round: R97, puzzle: Exclusion 5) | 24.9 nM | – | 22.2 nM | – | – | –
21 | AUUGAUAUUGAGGAUAUGCUUUUAUUUGUUCUUGCAGAAGGCGAUACAUGAGGAUCACCCAUGUUUAUGGAAGU [JR_E6_Sub089] (puzzle: Exclusion 6) | – | – | – | – | 38.9 nM | –
22 | CCUCCGGUGCGAGGAUAUCUGGCGGCCGCCGGUGGAGAAGGCGUACAUGAGGAUCACCCAUGUCCAGCGUGCUCCUCGCUGGUU [0.15] (Eterna round: R96, puzzle: Exclusion NG 1) | 75 nM | 19.9 nM | 31 nM | – | – | –
23 | GAUCUACAUGAGGAUCACCCAUGUAAGGAUAUCUACAUUGAAGCUUCGGCUUCAAUGUAGAGAAGGUACAAUUA [E1/10-B1] (Eterna round: R97, puzzle: Exclusion 1) | 40.7 nM | – | 27.9 nM | – | – | –
24 | GAGUUAGCGUGAGGAAUAUACAUGAGGAUCACCCAUGUUAACAAAUAUAUUGCUCGUCUUAUAACAACAAUUAACUC [Alarm 8 - Jieux - Sensor, turn-off variant 1] (Eterna round: R97, puzzle: Sensor, turn-off variant 1) | 14.9 nM | – | 16.5 nM | – | – | –
25 | UAUUAUAAUGUAGGAUAUCUGCACGAUUAGUGCAGAGAAGGACAUGAGGAUCACCCAUGUAUAGUAGCUUCGGCUACAUUAUUU [ENG1-B1] (Eterna round: R96, puzzle: Exclusion NG 1) | 114 nM | 60.7 nM | 77.5 nM | – | – | –
26 | AGUAGGUCUACCUUGGUGGAUCUGCAUUAUGCAAGUGUUACAUGAGGAUCACCCAUGUCCUCAUUUGCUCGUCUUAU [JL turnoff v2 99.23] (puzzle: Sensor v3, turn-off variant 2) | – | – | – | 37.1 nM | 130 nM | 36.2 nM
27 | UUUUAGCAAGCUAUUAUUAACAUGAGGAUCACCCAUGUGCAUCCAAAAUUACUUUUAGAUCUUGCUCGUCUUAUAUA [JR_STOV1_v2_Sub084] (Eterna round: R97, puzzle: Sensor, turn-off variant 1) | 1260 nM | – | 1600 nM | – | – | –
28 | CGUAGAUUAGGAUAUUGCUCGCUGGACAUGAGGAUCACCCAUGUGCGUGUCGUGCGAAGUCAAGAAGGAGUGUGUG [Eternabot (L2) Solution 40] (Eterna round: R97, puzzle: Exclusion 5) | 35.6 nM | – | 18 nM | – | – | –
29 | CAGGGUAGAGGAUAUACGUAGGUACAGAUCUGUGUGUUCCUACAUGAGGAUCACCCAUGUAGAAGGCUAGCCUG [LRO-Excl2-08] (puzzle: Exclusion 2) | – | – | – | – | 77.9 nM | –
30 | ACGUAUAGAGGAUAUACUGAAUAUUACAUGAGGAUCACCCAUGUUCUUCAAAGUAUAUUUGUAGAAGGCUAAUGAA [EX-5 Malc#9] (puzzle: Exclusion 5) | – | – | – | 15.8 nM | 10.2 nM | 9.61 nM
31 | AAGUAUAGAGGAUAUAGUAAGUACUACAUGAGGAUCACCCAUGUUCUUCAUUACGUAUUUCUAGAAGGCUGAUAAA [EX-5 Malc#25] (puzzle: Exclusion 5) | – | – | – | – | 369 nM | –
32 | UAAGUUUAGGUAGGAUAUACUUUAAAUUUCUCUAUCCAUACAUGAGGAUCACCCAUGUUUACAUUGUAGAAGGACCACUAUGUU [JR_ExcNG2_Sub055] (Eterna round: R96, puzzle: Exclusion NG 2) | – | 19.8 nM | – | – | – | –
33 | ACAUGAGGAUCACCCAUGUUUGGUUGGUUUUCUCCGGCUGUUGAGGAUAUAGUCCGGUAUCCGCGCUAGAAGGUGAGGGUUGGC [Aenatbe mod 8] (Eterna round: R96, puzzle: Exclusion NG 3) | 123 nM | 123 nM | 131 nM | – | – | –
34 | UUUAAUUUUUUUUUUUUACAAGCUUUUUGCUCGUCUUAUACAUGAGGAUCACCCAUGUAGGUGAAAGAUAAAUUAUC [JMF 4] (puzzle: Sensor v3, turn-off variant 2) | – | – | – | 31.5 nM | 77.5 nM | 33.5 nM
